# Test results published in PMC3184076 (2011).
# Target: MPR.03 biotinylated peptide (HIV-1, biotin on the C-terminus)
# Assay: SPR
binder,measurement,value
"CAP206-CH12 recombinant human monoclonal antibody (antibody, V domains shown) VH: QVQLVQSGAEVKKPGSSVKLSCKASGGTFGSYSVTWVRQAPGQTFEWVGRIVPWVGVPNYAPKFQGRVTITADKSSTVYMELTSLRFEDTAVYYCATAYEASGLSYYYYMDDWGKGTTVTVSS VL: EIVLTQSPGTLSLSPGERATLSCRASQSVTSSYLAWFRHKPGQAPRLLIYGASYRGTGIPDRISGSGSGTDFTLTISRLEPEDFAVYYCQHYGGSPGMYTFGQGTRLEIK",koff,0.00012 s⁻¹
